These results are taken from patent publication US20240132578A1.

For test [1], the target named is HIV-1 Env of isolate MGRM-AE-004 (pseudovirus) (HIV-1). Put plainly: cell-based or functional assay.
Test [2] deals with HIV-1 Env of isolate 93WR029 (pseudovirus) (HIV-1). Put plainly: cell-based or functional assay.
For test [3], the target named is HIV-1 Env of isolate MGRM-C-026 (subtype C), on pseudovirus (HIV-1). The test is described as follows: cell-based or functional assay.
The target of test [4] is HIV-1 Env of isolate 92WR024 (pseudovirus) (HIV-1). The test is described as follows: cell-based or functional assay.
The target in test [5] is HIV-1 Env of isolate 94UG103 (pseudovirus) (HIV-1). The test is described as follows: cell-based or functional assay.
Test [6] deals with HIV-1 Env of isolate MGRM-G-024 (subtype G) (HIV-1). Put plainly: cell-based or functional assay.
Test [7] concerns the target HIV-1 Env of isolate 92WR020 (pseudovirus) (HIV-1). The test is described as follows: cell-based or functional assay.
Test [8] concerns the target HIV-1 Env of isolate MGRM-AE-005 (pseudovirus) (HIV-1). Put plainly: cell-based or functional assay.
Test [9] concerns the target HIV-1 Env of isolate 92WR021 (pseudovirus) (HIV-1). The test is described as follows: cell-based or functional assay.
Test [10] addresses HIV-1 Env of isolate 92UG031 (pseudovirus) (HIV-1). The test is described as follows: cell-based or functional assay.
For test [11], the target named is HIV-1 Env of isolate 93UG077 (pseudovirus) (HIV-1). The test is described as follows: cell-based or functional assay.
The target in test [12] is HIV-1 Env of isolate 92UG037 (pseudovirus) (HIV-1). The test is described as follows: cell-based or functional assay.
The target in test [13] is HIV-1 Env of isolate MGRM-AE-006 (pseudovirus) (HIV-1). The test is described as follows: cell-based or functional assay.
Test [14] has as its target HIV-1 Env of isolate MGRM-D-011 (clade D pseudovirus) (HIV-1). The test is described as follows: cell-based or functional assay.
Test [15] addresses HIV-1 envelope glycoprotein (Env) of isolate LAVI_C3 (HIV-1). Put plainly: cell-based or functional assay.
The target of test [16] is HIV-1 Env of isolate SF162 (HIV-1) (UniProt P19550). The test is described as follows: cell-based or functional assay.
Test [17] deals with HIV-1 92RW020 Env (HIV-1). The test is described as follows: cell-based or functional assay.
Test [18] concerns the target HIV-1 Env of isolate TRJ04551.58 (HIV-1). Put plainly: cell-based or functional assay.
Test [19] addresses HIV-1 Env of isolate TRO.11 (HIV-1). Put plainly: cell-based or functional assay.
The target in test [20] is HIV-1 Env of isolate SC422661.8 (HIV-1). Put plainly: cell-based or functional assay.
Test [21] addresses HIV-1 Env of isolate MGRM-AE-007 (pseudovirus) (HIV-1). The test is described as follows: cell-based or functional assay.
Test [22] deals with HIV-1 Env of isolate THR0.18 (HIV-1). Put plainly: cell-based or functional assay.
Test [23] addresses HIV-1 Env of isolate VLGCB3 (HIV-1). The test is described as follows: cell-based or functional assay.
Test [24] addresses HIV-1 Env of isolate NL43 (HIV-1). The test is described as follows: cell-based or functional assay.
Test [25] has as its target HIV-1 Env of isolate 93MW959 (HIV-1). Put plainly: cell-based or functional assay.
Test [26] has as its target HIV-1 Env of isolate 98IN022 (HIV-1). The test is described as follows: cell-based or functional assay.
Test [27] addresses HIV-1 Env of isolate MGRM-Chronic-B-024 (HIV-1). The test is described as follows: cell-based or functional assay.
For test [28], the target named is HIV-1 Env of isolate 97ZA012 (HIV-1). Put plainly: cell-based or functional assay.
The target in test [29] is HIV-1 Env of isolate QH0692.42 (HIV-1). The test is described as follows: cell-based or functional assay.
For test [30], the target named is HIV-1 Env of isolate 93IN905 (HIV-1). Put plainly: cell-based or functional assay.
The target of test [31] is HIV-1 Env of isolate PVO.4 (HIV-1). Put plainly: cell-based or functional assay.
Test [32] deals with WT JR-FL gp120 (HIV-1 JR-FL). Put plainly: ELISA, antigen-coated wells, mAb titrated; EC50 by nonlinear regression. (In general: In an ELISA, binding on a coated surface is turned into a signal by an enzyme label.)
Test [33] has as its target JR-FL gp120 ΔV1/ΔV2 (HIV-1 JR-FL). The description is as above.
The target in test [34] is HIV-1 JR-CSF Env K421A (HIV-1 (isolate JR-CSF)) (UniProt P20871). Put plainly: cell-based or functional assay.

In the case of 4995_P16 (PGT-145) (antibody), the IC50 (µg/mL), single-round pseudovirus neutralization in [1] is 0.006 µg/mL; in [2] it was greater than 50 µg/mL; in test [4], 0.069 µg/mL; in [5] it was 0.331 µg/mL; in test [7], 0.997 µg/mL; in test [8], 0.967 µg/mL. In addition, the IC50 (µg/mL), single-round pseudovirus neutralization is 1.62 µg/mL in test [9]; 3.22 µg/mL in test [10]; greater than 50 µg/mL in test [11]; 3.15 µg/mL in [12]; greater than 50 µg/mL in test [13]. The substance further gave an IC50, single-round pseudovirus neutralization in [3] greater than 50 µg/mL. Also, the IC50 (µg/mL), pseudovirus neutralization in test [6] turned out to be 0.06 µg/mL.

As for b12 (antibody), the IC50, pseudovirus neutralization in test [14] was determined as 7.75 µg/mL. The figures for the IC50 (µg/ml), pseudovirus neutralization in test [15] and in [16] were 0.94 µg/mL and 0.02 µg/mL, respectively.

In test [14], 1443_C16 (PG16) (TCN-116) (antibody) returned an IC50, pseudovirus neutralization of 0.01 µg/mL. Further, the figures for the IC50 (µg/ml), pseudovirus neutralization in [15] and in test [16] were 9.55 µg/mL and greater than 50 µg/mL, respectively.

As to 4980_N08 (PGT-143) (antibody), the IC50 (µg/mL), single-round pseudovirus neutralization in test [1] is 0.002 µg/mL; in [2] it was 0.053 µg/mL; in [4], 0.122 µg/mL; in [5], greater than 50 µg/mL; in test [7] it was greater than 50 µg/mL; in test [8], greater than 50 µg/mL. The IC50 (µg/mL), single-round pseudovirus neutralization in test [9] is greater than 50 µg/mL; in test [10], 0.095 µg/mL; in test [11], greater than 50 µg/mL; in test [12], 0.854 µg/mL; in test [13], greater than 50 µg/mL. In [3], this substance registered an IC50, single-round pseudovirus neutralization greater than 50 µg/mL. This substance also returned an IC50 (µg/mL), pseudovirus neutralization in test [6] of 0.048 µg/mL. The substance further had an IC50, pseudovirus neutralization in [17] greater than 10 µg/mL.

Take PGV04 (antibody): the IC50 (µg/mL), pseudovirus neutralization was 0.183 µg/mL in [1]; 0.028 µg/mL in test [18]; 0.121 µg/mL in test [19]; 0.11 µg/mL in test [20]; 5.75 µg/mL in test [21]; greater than 50 µg/mL in test [22]. In addition, the IC50 (µg/mL), pseudovirus neutralization is 0.033 µg/mL in [6]; 0.045 µg/mL in test [23]; 0.028 µg/mL in test [24]; greater than 50 µg/mL in test [25]; 0.051 µg/mL in [8]; 5.69 µg/mL in test [26]. Besides, the IC50 (µg/mL), pseudovirus neutralization in test [27] is 2.52 µg/mL; in test [28], 0.041 µg/mL; in test [29], 1.9 µg/mL; in [30] it was 0.332 µg/mL; in test [31] it was 0.454 µg/mL; in [13], greater than 50 µg/mL.

On to 4E10 (antibody), for which the IC50, pseudovirus neutralization in test [14] is 0.91 µg/mL. Also, the IC50 (µg/ml), pseudovirus neutralization in [15] worked out at 2.85 µg/mL; in test [16], 4.28 µg/mL.

2F5 (antibody): the IC50, pseudovirus neutralization in test [14] is greater than 50 µg/mL. Moreover, the IC50 (µg/ml), pseudovirus neutralization was greater than 50 µg/mL in test [15] and 2.52 µg/mL in test [16].

Consider 4970_K22 (PGT-144) (antibody), for which the IC50 (µg/mL), single-round pseudovirus neutralization is 0.104 µg/mL in [1]; 4.39 µg/mL in test [2]; 16.3 µg/mL in [4]; greater than 50 µg/mL in test [5]; greater than 50 µg/mL in test [7]; greater than 50 µg/mL in [8]. Besides, the IC50 (µg/mL), single-round pseudovirus neutralization was greater than 50 µg/mL in test [9]; 2.17 µg/mL in test [10]; greater than 50 µg/mL in test [11]; 8.24 µg/mL in test [12]; greater than 50 µg/mL in test [13]. Moreover, the IC50, single-round pseudovirus neutralization in test [3] is greater than 50 µg/mL. This substance displayed an IC50 (µg/mL), pseudovirus neutralization in test [6] of 7.92 µg/mL. Besides, in [17], the IC50, pseudovirus neutralization is greater than 10 µg/mL.

For orientation: EC50 means the midpoint of the concentration-response curve. Lower therefore signals an effect from little substance. On to 4858_P08 (PGT-123) (antibody), for which the EC50 in [32] stood at 0.2 µg/mL; in test [33], 0.3 µg/mL. The IC50 (µg/mL), pseudovirus neutralization in [1], in test [21], in test [8] and in [13] was greater than 50 µg/mL each time. In test [34], the Fold IC50 increase relative to wild-type (pseudovirus neutralization) stood at 0.9 fold. Further, in test [17], the IC50, pseudovirus neutralization was found to be 0.0038 µg/mL.

Turning to 4838_L06 (PGT-121) (antibody), the EC50 in [32] and in test [33] was 0.2 µg/mL throughout.

The substance 1495_C14 (PGC14) (antibody) displayed an IC50, pseudovirus neutralization in test [14] greater than 50 µg/mL. The IC50 (µg/ml), pseudovirus neutralization in [15] is 12 µg/mL; in test [16] it was less than 0.0025 µg/mL.

The substance 2G12 (antibody) registered an IC50, pseudovirus neutralization in [14] of 1.5 µg/mL. The IC50 (µg/ml), pseudovirus neutralization in [15] is greater than 50 µg/mL; in test [16], 1.67 µg/mL.

As to 4995_E20 (PGT-142) (antibody), the IC50 (µg/mL), single-round pseudovirus neutralization in test [1] is 0.001 µg/mL; in test [2], 0.014 µg/mL; in [4], 0.069 µg/mL; in [5] it was greater than 50 µg/mL; in [7], 31.5 µg/mL; in test [8], greater than 50 µg/mL. Moreover, the IC50 (µg/mL), single-round pseudovirus neutralization in test [9] was greater than 50 µg/mL; in test [10], 0.05 µg/mL; in test [11], greater than 50 µg/mL; in [12], 0.557 µg/mL; in test [13], greater than 50 µg/mL. Also, in test [3], the IC50, single-round pseudovirus neutralization is greater than 50 µg/mL. The substance further displayed an IC50 (µg/mL), pseudovirus neutralization in test [6] of 0.054 µg/mL. In test [17], the IC50, pseudovirus neutralization was greater than 10 µg/mL.

With 4877_D15 (PGT-122) (antibody), the EC50 in [32] and in test [33] was 0.3 µg/mL in each case. For the same substance, the IC50 (µg/mL), pseudovirus neutralization in test [1], in test [21], in [8] and in test [13] was greater than 50 µg/mL in each case. In [17], this substance came in with an IC50, pseudovirus neutralization of 0.0072 µg/mL.

For 1496_C09 (PG9) (TCN-109) (antibody), the IC50 (µg/mL), pseudovirus neutralization is 0.009 µg/mL in test [1]; 0.858 µg/mL in test [18]; 16.9 µg/mL in [19]; 1.48 µg/mL in test [20]; 0.18 µg/mL in [21]; 26.4 µg/mL in [22]. In addition, the IC50 (µg/mL), pseudovirus neutralization is 0.163 µg/mL in [6]; 0.022 µg/mL in test [23]; 0.054 µg/mL in test [25]; 0.282 µg/mL in test [8]; 0.003 µg/mL in [26]; 0.222 µg/mL in test [27]. Besides, the IC50 (µg/mL), pseudovirus neutralization was 3.4 µg/mL in test [28], 0.035 µg/mL in test [30], 24.8 µg/mL in test [31] and 0.063 µg/mL in test [13]. The results for the IC50, pseudovirus neutralization in test [14] and in test [17] were 0.06 µg/mL and 0.161 µg/mL, respectively. In test [15], this substance had an IC50 (µg/ml), pseudovirus neutralization of 1.45 µg/mL.
